# Measured values as given in patent US20050159354A1.
# Key:
# [1] = biological target: neuronal receptor for agrin, on cultured mouse cortical neurons (mouse); experiment: NIH Image analysis of immunofluorescence on cortical neurons; competitor C-Ag20z8 at 1:1 molar ratio (unpublished data)
# [2] = biological target: neuronal receptor for agrin, on cultured mouse cortical neurons (mouse); experiment: cell-based or functional assay
EC50 of c-fos induction in cortical neurons (in situ enzyme-linked immunoassay) [2],"rescue of glutamate-induced Fos expression in agrin-deficient neurons (5 nM, 2 d) [2]",other results,Substance
–,–,reduction of labeling (mean pixel intensity) [1]: 30%,"rC-Agy4z8, soluble 95-kD COOH-terminal fragment of rat agrin, y4z8 isoform (from UniProt P25304 1153-1951) (ligand)"
0.0133 nM,2.2 fold,–,"C-Ag20z0, 20-kD COOH-terminal fragment of mouse agrin, z0 splice variant (ligand)"
0.0112 nM,2.2 fold,–,"C-Ag20z8, 20-kD COOH-terminal fragment of mouse agrin, z8 splice variant (ligand)"
0.0119 nM,–,–,"C-Ag95z0, soluble 95-kD COOH terminus of mouse agrin, y4 z0 (from UniProt A2ASQ1 1144-1950) (ligand)"
–,–,IC50 of inhibition of c-fos induction by 50 pM C-Ag95z8 in cortical neurons [2]: 64.5 pM; inhibition of rescue of the agrin-deficient glutamate response by 5 nM C-Ag95z0 (10 nM C-Ag15) [2]: 54%,"C-Ag15, 15-kD COOH-terminal fragment of mouse agrin (ligand)"
0.0127 nM,–,–,"C-Ag95z8, soluble 95-kD COOH terminus of mouse agrin, y4 z8 (from UniProt A2ASQ1 1144-1950) (ligand)"
